Laboratory results published in paper PMC3285688, “Active Site Mutations Change the Cleavage Specificity of Neprilysin” (PLoS ONE, 2012).
“And” between values parts separate entries of the source, which are not always exact repeats. Identical values can stand only once. “Also recorded” adds a separate entry of the source.

Legend:
Format in all cases: biochemical
leu-ENK [1] = experiment: Dual substrate assay: leu-ENK hydrolysis in presence of insulin B chain; conditions: 15 µM insulin B chain and 64 µM leu-ENK together, 37°C, 20 mM MES buffer, pH 6.5
Method: (§1) The rate of cleavage of a substrate mixture is determined by both the kcat for that substrate as well by the affinity for the substrate. […] This is expected, given that each peptide acts as a competitive inhibitor of the other. […] That is the ratio for leu-ENK/insulin B chain cleavage is 3 for NEP^S546E compared to 6 for wild-type NEP.
(§2) Cleavage of physiological peptides was measured via reverse phase high performance liquid chromatography (HPLC) following incubation of the purified NEP or its mutants with 15 µM insulin B chain (Sigma Aldrich), 24 µM Aß1–40 (Anaspec), or 64 µM leu-ENK (Sigma) in 100 µL of 20 mM MES, pH 6.5, at 37°C. Reactions were run in triplicate. HPLC was carried out in a Vydac C4 column using a linear gradient from 0.1% trifluoroacetic acid (TFA) in 95% water, 5% acetonitrile to 0.1% TFA in 50% acetonitrile/water at a flow rate of 1 mL/min. Peptides and hydrolysis products were detected at 214 nm and quantified by measuring peak areas. Peptides obtained from HPLC were analyzed on an Applied Biosystems 4800 MALDI TOF/TOF Proteomics Analyzer at the University of Kentucky Proteomics core. This facility is supported in part by grant P20RR020171 from the NIH/NCRR.

leu-ENK [2] = experiment: Rate of leu-ENK hydrolysis (HPLC)
Method: as §2
(§3) Statistical analysis comparing wild-type NEP and its mutants was performed with Prism 4 software using a two-tailed paired t-test with a 95% confidence interval.

insulin B chain [3] = experiment: Insulin B chain as alternate substrate (competitive) inhibitor of Glut-Ala-Ala-Phe-MNA hydrolysis (Dixon plot); conditions: insulin B chain 1 to 40 µM as competitive inhibitor of Glut-Ala-Ala-Phe-MNA hydrolysis by the enzyme form, 37°C, 20 mM MES, pH 6.5, ID50 converted to Ki
Method: (§4) Kinetic constants for NEP and its mutants were obtained using the assay conditions noted above, but with Glut-Ala-Ala-Phe-MNA varied from 20 to 500 µM. Typically 12 data points were obtained. The data were fit to the Michaelis-Menten equation using Prism4 software. The Ki for insulin B chain was obtained by measuring the rate of Glut-Ala-Ala-Phe-MNA hydrolysis in the presence of varying concentrations of insulin B chain from 1 to 40 µM. Data were fit to a Dixon plot (1/rate versus [insulin B chain]) using Prism4 software and the ID50 obtained as the –x intercept, where ID50 corresponds to the concentration of insulin producing 50% inhibition. The actual Ki was obtained from the equation: ID50 = Ki (1+ [Glut-Ala-Ala-Phe-MNA]/KmGlut-Ala-Ala-Phe-MNA), [33].

insulin B chain [4] = experiment: Dual substrate assay: insulin B chain hydrolysis in presence of leu-ENK; conditions: 15 µM insulin B chain and 64 µM leu-ENK together, 37°C, 20 mM MES buffer, pH 6.5
Method: as §1, §2

insulin B chain [5] = experiment: Time course of product peak accumulation from insulin B chain
From the text: As a representative of the NEP^F563 and NEP^S546 mutants, we compared the cleavage profile of NEP^F563L and NEP^S546E to that of NEP using time course experiments, Figure 2 . By adjusting the amount of NEP mutant used, the rate of hydrolysis of insulin B chain by all NEP forms was virtually identical. […] Since rates were based on peak areas measured at 214 nm, which in turn is dependent on both the number of peptide bonds and the number of aromatic residues within a given peptide, only the observed rates of change for a particular peptide product can be compared between enzyme forms. A comparison of the rate of change of different peaks within the same enzyme form or between enzyme forms is not valid under our conditions of analysis.
as §2

[6] = Hydrolysis of synthetic substrate Glut-Ala-Ala-Phe-MNA by NEP and mutants (fluorogenic)
Method: Reactions of 400 µl contained 100 µM Glut-Ala-Ala-Phe-MNA, 1 µg of aminopeptidase and 15 to 100 ng of NEP or mutant NEP depending on their activity in 20 mM MES buffer, pH 6.5. Activity was monitored with a Spectra Max Gemini XS plate reader using an excitation wavelength of 340 nm and an emission wavelength of 425 nm.
as §4

Aß1–40 [7] = experiment: Time course of product peak accumulation from Aß1–40
Method: Similar to the analysis conducted with insulin B chain, the linear rate of product accumulation was determined for each peak and normalized to the amount of protein in the reaction, Table 7 . Unlike the hydrolysis of insulin B chain, the hydrolysis of Aß1–40, even at the earliest time points, produced products resulting from multiple cleavage events. Out of the 12 identified product peaks, only 3 could be produced by a single cleavage. Rates for all cleavages were calculated and are given in Figure 4, B–D , but only the three putative primary cleavage sites can be compared.
as §2

[8] = system: leu-ENK and insulin B chain; experiment: Dual substrate assay: substrate preference leu-ENK versus insulin B chain
Method: as §1, §2

Aß1–40 [9] = experiment: Rate of Aß1–40 hydrolysis (HPLC)
Method: as §2, §3

insulin B chain [10] = experiment: Rate of insulin B chain hydrolysis (HPLC)
Method: as §2, §3

[11] = 15 µM insulin B chain, 37°C, 20 mM MES, pH 6.5, 0-180 min, HPLC peak area 214 nm, linear phase
[12] = 24 µM Aß1–40, 37°C, 20 mM MES, pH 6.5, 0-360 min, HPLC peak area, linear phase

B1: NEP^F563L: neprilysin active site mutant, Phe563 to leucine (protein, UniProt P08473 2-750, looked up, variant F563L)
Neprilysin: GKSESQMDITDINTPKPKKKQRWTPLEISLSVLVLLLTIIAVTMIALYATYDDGICKSSDCIKSAARLIQNMDATTEPCTDFFKYACGGWLKRNVIPETSSRYGNFDILRDELEVVLKDVLQEPKTEDIVAVQKAKALYRSCINESAIDSRGGEPLLKLLPDIYGWPVATENWEQKYGASWTAEKAIAQLNSKYGKKVLINLFVGTDDKNSVNHVIHIDQPRLGLPSRDYYECTGIYKEACTAYVDFMISVARLIRQEERLPIDENQLALEMNKVMELEKEIANATAKPEDRNDPMLLYNKMTLAQIQNNFSLEINGKPFSWLNFTNEIMSTVNISITNEEDVVVYAPEYLTKLKPILTKYSARDLQNLMSWRFIMDLVSSLSRTYKESRNAFRKALYGTTSETATWRRCANYVNGNMENAVGRLYVEAAFAGESKHVVEDLIAQIREVFIQTLDDLTWMDAETKKRAEEKALAIKERIGYPDDIVSNDNKLNNEYLELNYKEDEYFENIIQNLKFSQSKQLKKLREKVDKDEWISGAAVVNAFYSSGRNQIVFPAGILQPPLFSAQQSNSLNYGGIGMVIGHEITHGFDDNGRNFNKDGDLVDWWTQQSASNFKEQSQCMVYQYGNFSWDLAGGQHLNGINTLGENIADNGGLGQAYRAYQNYIKKNGEEKLLPGLDLNHKQLFFLNFAQVWCGTYRPEYAVNSIKTDVHSPGNFRIIGTLQNSAEFSEAFHCRKNSYMNPEKKCRVW
leu-ENK hydrolysis rate, dual substrate assay (leu-ENK [1]): 0.97 ± 0.06 pmol/min/ng | leu-ENK hydrolysis, activity relative to the uninhibited value (leu-ENK [1]; numbers in parenthesis): 0.62 | Rate of hydrolysis of leu-ENK (leu-ENK [2]; 64 µM leu-ENK, 37°C, 20 mM MES buffer, pH 6.5, disappearance of substrate by HPLC, at least triplicate): 1.57 ± 0.32 pmol/min/ng | leu-ENK cleavage rate relative to wild-type NEP rate (leu-ENK [2]; 64 µM leu-ENK, pH 6.5, 37°C): approximately 80% | Activity for both Glut-Ala-Ala-Phe-MNA and leu-ENK (in words) (leu-ENK [2]; versus wild-type): near wild-type levels of activity | Ki (insulin B chain [3]): 1500 ± 300 nM | Insulin B Chain hydrolysis rate, dual substrate assay (insulin B chain [4]): 0.19 ± 0.03 pmol/min/ng | Rate of accumulation of peak 1–5 (single cleavage H^5-L^6) (insulin B chain [5]; [11]): 83 Δarea/min/ng | Rate of accumulation of peak 1–10 (single cleavage H^10-L^11) (insulin B chain [5]; [11]): 135 Δarea/min/ng | Rate of accumulation of peak 1–11 (single cleavage L^11-V^12) (insulin B chain [5]; [11]): 16 Δarea/min/ng | Rate of accumulation of peak 1–14 (single cleavage A^14-L^15) (insulin B chain [5]; [11]): 266 Δarea/min/ng | Rate of accumulation of peak 1–16 (single cleavage Y^16-L^17) (insulin B chain [5]; [11]): 25 Δarea/min/ng | Rate of accumulation of peak 15–23 (two cleavages A^14-L^15, G^23-F^24) (insulin B chain [5]; [11]): 64 Δarea/min/ng | Rate of accumulation of peak 15–30 (single cleavage A^14-L^15) (insulin B chain [5]; [11]): 282 Δarea/min/ng | Rate of accumulation of peak 17–24 (two cleavages Y^16-L^17, F^24-F^25) (insulin B chain [5]; [11]): 25 Δarea/min/ng | Rate of accumulation of peak 17–30 (single cleavage Y^16-L^17) (insulin B chain [5]; [11]): 112 Δarea/min/ng | Rate of accumulation of peak 24–30 (single cleavage G^23-F^24) (insulin B chain [5]; [11]): 290 Δarea/min/ng | Unique or missing cleavage sites in insulin B chain versus NEP (insulin B chain [5]; 30% substrate hydrolysis, HPLC profile): no unique or missing cleavage sites | Cleavage at A^14-L^15 in insulin B chain relative to NEP (insulin B chain [5]; times the NEP rate): ~1.4 | Cleavage at H^5-L^6 in insulin B chain relative to NEP (insulin B chain [5]; times the NEP rate): ~1.4 | Cleavage at H^10-L^11 in insulin B chain relative to NEP (insulin B chain [5]; times the NEP rate): 0.8 | Cleavage at L^11-V^12 in insulin B chain relative to NEP (insulin B chain [5]; times the NEP rate): 0.2 | Cleavage at Y^16-L^17 in insulin B chain relative to NEP (insulin B chain [5]; times the NEP rate): ~0.7 | Activity relative to wild-type enzyme (Figure S2 legend, in words) [6]: same activity as wild-type enzyme | Specific Activity (Glut-Ala-Ala-Phe-MNA cleavage) ([6]; 100 µM Glut-Ala-Ala-Phe-MNA, 37°C, 20 mM MES buffer, pH 6.5, fluorescence ex 340 nm, em 425 nm): 44 pmol/min/ng and 43.6 ± 0.1 pmol/min/ng | Km ([6]; Glut-Ala-Ala-Phe-MNA 20 to 500 µM, 37°C, 20 mM MES buffer, pH 6.5, Michaelis-Menten fit): 81 ± 11 µM | Accumulation rate of peak Aß 1–9 (single cleavage G^9-Y^10) (Aß1–40 [7]; [12]): 0 Δarea/min/ng | Accumulation rate of peak Aß 1–16 (single cleavage K^16-L^17) (Aß1–40 [7]; [12]): 17 Δarea/min/ng | Accumulation rate of peak Aß 1–17 (single cleavage L^17-V^18) (Aß1–40 [7]; [12]): 22 Δarea/min/ng | Accumulation rate of peak Aß 4–9 (dual cleavages A^3-F^4, G^9-Y^10) (Aß1–40 [7]; [12]): 5 Δarea/min/ng | Accumulation rate of peak Aß 4–16 (dual cleavages A^3-F^4, K^16-L^17) (Aß1–40 [7]; [12]): 5 Δarea/min/ng | Accumulation rate of peak Aß 4–17 (dual cleavages A^3-F^4, L^17-V^18) (Aß1–40 [7]; [12]): 12 Δarea/min/ng | Accumulation rate of peak Aß 10–16 (dual cleavages G^9-Y^10, K^16-L^17) (Aß1–40 [7]; [12]): 11 Δarea/min/ng | Accumulation rate of peak Aß 10–17 (dual cleavages G^9-Y^10, L^17-V^18) (Aß1–40 [7]; [12]): 8 Δarea/min/ng | Accumulation rate of peak Aß 12–17 (dual cleavages E^11-V^12, L^17-V^18) (Aß1–40 [7]; [12]): 1 Δarea/min/ng | Accumulation rate of peak Aß 20–28 (dual cleavages F^19-F^20, K^28-G^29) (Aß1–40 [7]; [12]): 5 Δarea/min/ng | Accumulation rate of peak Aß 20–29 (dual cleavages F^19-F^20, G^29-A^30) (Aß1–40 [7]; [12]): 6 Δarea/min/ng | Accumulation rate of peak Aß 20–30 (dual cleavages F^19-F^20, A^30-I^31) (Aß1–40 [7]; [12]): 26 Δarea/min/ng | Presence of wild-type product peaks from Aß1–40 (in words) (Aß1–40 [7]; HPLC profile at ∼30% hydrolysis, Aß1–9 peak in case of NEP^F563L): the peak corresponding to Aß1–9 was not present | Cleavage at L^17-V^18 in Aß1–40 relative to wild-type NEP (Aß1–40 [7]; product Aß1–17): 25% | Cleavage of the G^9-Y^10 bond in Aß1–40 (in words) (Aß1–40 [7]; versus NEP, inferred from Aß1–9, Aß10–17): much slower rate; also recorded: appears to cleave the G^9-Y^10 bond | Substrate preference leu-ENK/insulin B chain (in words) ([8]; dual substrate assay, versus wild-type): no change in overall substrate preference | Ratio leu-ENK insulin B chain ([8]; ratio of rates, 15 µM insulin B chain and 64 µM leu-ENK together): 5.1 | Rate of hydrolysis of Aß1–40 (Aß1–40 [9]; 24 µM Aß1–40, 37°C, 20 mM MES buffer, pH 6.5, disappearance of substrate by HPLC, at least triplicate): 116 ± 4 fmol/min/ng | Aß1–40 hydrolysis rate relative to wild-type NEP (Aß1–40 [9]; overall rate as fraction/times of wild-type rate, 24 µM Aß1–40): nearly half the rate of the wild-type enzyme | Rate of hydrolysis of Insulin B Chain (insulin B chain [10]; 15 µM insulin B chain, 37°C, 20 mM MES buffer, pH 6.5, disappearance of substrate by HPLC, at least triplicate): 1.17 ± 0.18 pmol/min/ng | Insulin B chain hydrolysis rate relative to NEP (insulin B chain [10]; overall rate, 15 µM insulin B chain): 1.4 times | Preference for insulin B chain over Aß1–40 (insulin B chain [10]; relative to NEP, from separate single-substrate rates): greater than 2 fold
